Test results: patent US20040001835A1, “Prevention or treatment of cancer using integrin alphavbeta3 antagonists in combination with other agents” (MedImmune, Inc., priority 2002, published 2004)

Experiments:
Rat Integrin αvβ3 (Rat) = Rat Integrin αvβ3 (Rat) (UniProt Q8R2H2); assay: flow cytometry, RG2 rat glioma cells, 0.5 µg antibody per 5x10^5 cells, against isotype matched control
[1] = molecular target: Rabbit Integrin αvβ3 (Rabbit); assay: flow cytometry, VX7 rabbit carcinoma cells, 0.5 µg antibody per 5x10^5 cells, against isotype matched control
[2] = molecular target: human Integrin αVβ3 (human) (UniProt P06756); assay: flow cytometry, M21 melanoma cells, 0.5 µg antibody per 5x10^5 cells, against isotype matched control
[3] = molecular target: Hamster Integrin αvβ3 (Hamster); assay: flow cytometry, CCL-49 hamster melanoma cells, 0.5 µg antibody per 5x10^5 cells, against isotype matched control
[4] = molecular target: human Integrin αVβ3 (human) (UniProt P06756); assay: flow cytometry, HMVEC endothelial cells, 0.5 µg antibody per 5x10^5 cells, against isotype matched control
[5] = molecular target: Rabbit Integrin αvβ3 (Rabbit); assay: binding of 125I-labeled Vitaxin to RK1 rabbit kidney epithelium cells
[6] = molecular target: Hamster Integrin αvβ3 (Hamster); assay: binding of 125I-labeled Vitaxin to CCL-49 hamster melanoma cells
[7] = molecular target: Rabbit Integrin αvβ3 (Rabbit); assay: binding of 125I-labeled Vitaxin to VX7 rabbit carcinoma cells
[8] = molecular target: human Integrin αVβ3 (human) (UniProt P06756); assay: binding of 125I-labeled Vitaxin to HUVEC primary human endothelium
[9] = molecular target: Rabbit Integrin αvβ3 (Rabbit); assay: binding of 125I-labeled Vitaxin to cell lines
[10] = molecular target: Hamster Integrin αvβ3 (Hamster); assay: binding of 125I-labeled Vitaxin to cell lines
[11] = molecular target: human Integrin αVβ3 (human) (UniProt P06756); assay: binding of 125I-labeled Vitaxin to M21 human melanoma cells

Rat Integrin αvβ3 (Rat), sequence (Q8R2H2 26-787): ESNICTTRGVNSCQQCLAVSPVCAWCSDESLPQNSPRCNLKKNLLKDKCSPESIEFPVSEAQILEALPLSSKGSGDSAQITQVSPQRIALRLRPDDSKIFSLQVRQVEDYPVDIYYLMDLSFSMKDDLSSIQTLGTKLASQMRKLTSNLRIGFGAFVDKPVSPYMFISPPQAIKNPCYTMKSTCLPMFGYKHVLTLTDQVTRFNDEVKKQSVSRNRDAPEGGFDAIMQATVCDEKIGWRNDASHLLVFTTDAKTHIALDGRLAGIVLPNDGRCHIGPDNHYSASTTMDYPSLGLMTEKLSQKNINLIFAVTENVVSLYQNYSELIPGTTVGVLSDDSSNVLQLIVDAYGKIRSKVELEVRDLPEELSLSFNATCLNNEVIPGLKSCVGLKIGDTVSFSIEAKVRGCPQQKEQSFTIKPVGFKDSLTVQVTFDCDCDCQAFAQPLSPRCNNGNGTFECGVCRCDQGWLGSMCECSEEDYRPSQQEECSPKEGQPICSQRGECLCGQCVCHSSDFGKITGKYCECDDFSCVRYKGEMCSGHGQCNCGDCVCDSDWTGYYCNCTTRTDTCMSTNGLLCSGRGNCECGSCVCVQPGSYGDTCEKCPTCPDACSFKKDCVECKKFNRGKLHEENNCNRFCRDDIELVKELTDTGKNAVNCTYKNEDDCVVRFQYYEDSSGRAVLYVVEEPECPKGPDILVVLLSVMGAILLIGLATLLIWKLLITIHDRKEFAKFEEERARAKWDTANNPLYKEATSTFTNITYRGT
human Integrin αVβ3 (human), sequence (P06756 31-1048, chain 1 of 2): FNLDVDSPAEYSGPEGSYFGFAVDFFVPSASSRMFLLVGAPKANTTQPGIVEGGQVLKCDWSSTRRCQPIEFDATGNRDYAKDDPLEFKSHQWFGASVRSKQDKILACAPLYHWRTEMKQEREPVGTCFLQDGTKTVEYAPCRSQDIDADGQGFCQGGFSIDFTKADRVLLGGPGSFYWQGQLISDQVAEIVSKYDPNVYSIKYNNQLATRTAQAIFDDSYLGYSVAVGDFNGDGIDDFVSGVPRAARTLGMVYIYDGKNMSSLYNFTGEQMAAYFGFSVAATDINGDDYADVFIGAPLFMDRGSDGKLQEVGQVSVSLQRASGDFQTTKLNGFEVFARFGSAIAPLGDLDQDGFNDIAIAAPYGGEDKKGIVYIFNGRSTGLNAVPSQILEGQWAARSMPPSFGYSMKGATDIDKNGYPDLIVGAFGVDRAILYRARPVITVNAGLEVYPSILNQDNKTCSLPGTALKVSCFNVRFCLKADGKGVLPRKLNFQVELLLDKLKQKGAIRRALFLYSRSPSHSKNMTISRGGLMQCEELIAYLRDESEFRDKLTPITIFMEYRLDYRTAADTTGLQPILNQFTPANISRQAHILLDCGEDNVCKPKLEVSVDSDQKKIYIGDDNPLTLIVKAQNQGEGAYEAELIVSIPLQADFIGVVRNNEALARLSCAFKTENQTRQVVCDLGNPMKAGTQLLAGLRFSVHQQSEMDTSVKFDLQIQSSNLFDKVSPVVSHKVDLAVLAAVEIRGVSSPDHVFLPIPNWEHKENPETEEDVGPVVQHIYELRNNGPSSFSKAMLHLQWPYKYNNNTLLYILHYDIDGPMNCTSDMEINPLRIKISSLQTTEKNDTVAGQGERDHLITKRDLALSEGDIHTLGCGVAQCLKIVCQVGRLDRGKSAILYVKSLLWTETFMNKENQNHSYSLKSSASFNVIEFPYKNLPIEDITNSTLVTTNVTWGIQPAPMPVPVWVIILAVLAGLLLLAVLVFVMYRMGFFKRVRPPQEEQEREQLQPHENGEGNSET
human Integrin αVβ3 (human), sequence (P05106 27-788, chain 2 of 2, further chain): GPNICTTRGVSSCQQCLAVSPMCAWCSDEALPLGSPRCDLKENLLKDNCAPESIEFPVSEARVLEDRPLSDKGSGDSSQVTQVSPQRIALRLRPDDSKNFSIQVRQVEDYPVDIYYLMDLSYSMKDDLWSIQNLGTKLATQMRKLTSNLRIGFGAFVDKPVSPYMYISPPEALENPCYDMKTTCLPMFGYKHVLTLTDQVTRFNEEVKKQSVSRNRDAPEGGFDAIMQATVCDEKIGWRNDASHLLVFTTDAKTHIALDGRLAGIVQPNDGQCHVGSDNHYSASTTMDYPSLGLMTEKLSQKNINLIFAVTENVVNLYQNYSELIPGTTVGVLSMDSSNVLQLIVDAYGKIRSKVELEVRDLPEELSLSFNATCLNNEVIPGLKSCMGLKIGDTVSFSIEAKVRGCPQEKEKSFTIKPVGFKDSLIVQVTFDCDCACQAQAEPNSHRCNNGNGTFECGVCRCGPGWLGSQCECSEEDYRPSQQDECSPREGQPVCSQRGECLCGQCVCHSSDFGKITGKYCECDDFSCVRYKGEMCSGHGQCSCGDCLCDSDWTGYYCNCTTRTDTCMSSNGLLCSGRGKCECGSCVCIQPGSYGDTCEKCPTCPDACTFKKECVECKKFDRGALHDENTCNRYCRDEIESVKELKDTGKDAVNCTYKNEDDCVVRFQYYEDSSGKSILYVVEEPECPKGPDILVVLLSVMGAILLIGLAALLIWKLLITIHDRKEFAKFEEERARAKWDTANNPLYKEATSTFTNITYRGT

Row | Fold Increase Over Control (mean channel fluorescence) (Rat Integrin αvβ3 (Rat)) | Fold Increase Over Control (mean channel fluorescence) [1] | Fold Increase Over Control (mean channel fluorescence) [2] | Fold Increase Over Control (mean channel fluorescence) [3] | Fold Increase Over Control (mean channel fluorescence) [4] | Binding Sites (binding sites) [5] | Kd [5] | Kd [6] | Binding Sites (binding sites) [7] | Kd [7] | Binding Sites (binding sites) [8] | Kd [8] | fold lower affinity than for human αvβ3 [9] | fold lower affinity than for human αvβ3 [10] | Binding Sites (binding sites) [11] | Kd [11] | Substance
1 | 11 fold | 1 fold | 0.99 fold |  |  |  |  |  |  |  |  |  |  |  |  |  | F11, mouse anti-rat β3 mAb (antibody)
2 | 2.3 fold | 3 fold | 65 fold | 7.2 fold | 4.3 fold |  |  |  |  |  |  |  |  |  |  |  | LM609, mouse anti-human αVβ3 Integrin mAb (antibody)
3 | 0.95 fold | 17 fold | 73 fold | 12 fold | 8.9 fold | 42000 | 23 nM | 6.9 nM | 160000 | 8.9 nM | 81000 | 3.3 nM | 4 to 10 fold | 2 to 3 fold | 130000 | 2.2 nM | Vitaxin® (humanized monoclonal antibody MEDI-522)
